System: HAB1
Assay: Yeast two hybrid of pBD-PYR1 site saturation mutants with pACT-HAB1 on 10 μM ABA, β-galactosidase staining
Type: cell-based, Arabidopsis
Parameters: key: x: Mutations in PYR1 that disrupt ABA-induced binding to PYR1 to HAB1
Settings: S. cerevisiae Y190, 10 μM ABA; dead = lack of visible staining in comparison to wild type control
Method in brief: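 S. cerevisiae Y190 co-expressing GAL4-DNA-binding-domain–PYR1 mutants and GAL4-activation-domain–HAB1 were spotted on SD (-Leu, -Trp) agar with 10 μM (+)-ABA for 2 days at 30° C. Colonies were chloroform-lysed and stained for β-galactosidase. Mutants lacking visible staining relative to wild type were scored as non-binding.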

B1: H115V: PYR1 mutant (protein, UniProt O49686 1-191, looked up, variant H115V)
Abscisic acid receptor PYR1: MPSELTPEERSELKNSIAEFHTYQLDPGSCSSLHAQRIHAPPELVWSIVRRFDKPQTYKHFIKSCSVEQNFEMRVGCTRDVIVISGLPANTSTERLDILDDERRVTGFSIIGGEVRLTNYKSVTTVHRFEKENRIWTVVLESYVVDMPEGNSEDDTRMFADTVVKLNLQKLATVAEAMARNSGDGSGSQVT
  Mutations in PYR1 that disrupt ABA-induced binding to PYR1 to HAB1: x

B2: H115W: PYR1 mutant (protein, UniProt O49686 1-191, looked up, variant H115W)
Abscisic acid receptor PYR1: MPSELTPEERSELKNSIAEFHTYQLDPGSCSSLHAQRIHAPPELVWSIVRRFDKPQTYKHFIKSCSVEQNFEMRVGCTRDVIVISGLPANTSTERLDILDDERRVTGFSIIGGEWRLTNYKSVTTVHRFEKENRIWTVVLESYVVDMPEGNSEDDTRMFADTVVKLNLQKLATVAEAMARNSGDGSGSQVT
  Mutations in PYR1 that disrupt ABA-induced binding to PYR1 to HAB1: x

B3: H115C: PYR1 mutant (protein, UniProt O49686 1-191, looked up, variant H115C)
Abscisic acid receptor PYR1: MPSELTPEERSELKNSIAEFHTYQLDPGSCSSLHAQRIHAPPELVWSIVRRFDKPQTYKHFIKSCSVEQNFEMRVGCTRDVIVISGLPANTSTERLDILDDERRVTGFSIIGGECRLTNYKSVTTVHRFEKENRIWTVVLESYVVDMPEGNSEDDTRMFADTVVKLNLQKLATVAEAMARNSGDGSGSQVT
  Mutations in PYR1 that disrupt ABA-induced binding to PYR1 to HAB1: x

B4: H115Y: PYR1 mutant (protein, UniProt O49686 1-191, looked up, variant H115Y)
Abscisic acid receptor PYR1: MPSELTPEERSELKNSIAEFHTYQLDPGSCSSLHAQRIHAPPELVWSIVRRFDKPQTYKHFIKSCSVEQNFEMRVGCTRDVIVISGLPANTSTERLDILDDERRVTGFSIIGGEYRLTNYKSVTTVHRFEKENRIWTVVLESYVVDMPEGNSEDDTRMFADTVVKLNLQKLATVAEAMARNSGDGSGSQVT
  Mutations in PYR1 that disrupt ABA-induced binding to PYR1 to HAB1: x

B5: H115D: PYR1 mutant (protein, UniProt O49686 1-191, looked up, variant H115D)
Abscisic acid receptor PYR1: MPSELTPEERSELKNSIAEFHTYQLDPGSCSSLHAQRIHAPPELVWSIVRRFDKPQTYKHFIKSCSVEQNFEMRVGCTRDVIVISGLPANTSTERLDILDDERRVTGFSIIGGEDRLTNYKSVTTVHRFEKENRIWTVVLESYVVDMPEGNSEDDTRMFADTVVKLNLQKLATVAEAMARNSGDGSGSQVT
  Mutations in PYR1 that disrupt ABA-induced binding to PYR1 to HAB1: x

B6: H115E: PYR1 mutant (protein, UniProt O49686 1-191, looked up, variant H115E)
Abscisic acid receptor PYR1: MPSELTPEERSELKNSIAEFHTYQLDPGSCSSLHAQRIHAPPELVWSIVRRFDKPQTYKHFIKSCSVEQNFEMRVGCTRDVIVISGLPANTSTERLDILDDERRVTGFSIIGGEERLTNYKSVTTVHRFEKENRIWTVVLESYVVDMPEGNSEDDTRMFADTVVKLNLQKLATVAEAMARNSGDGSGSQVT
  Mutations in PYR1 that disrupt ABA-induced binding to PYR1 to HAB1: x

B7: H115F: PYR1 mutant (protein, UniProt O49686 1-191, looked up, variant H115F)
Abscisic acid receptor PYR1: MPSELTPEERSELKNSIAEFHTYQLDPGSCSSLHAQRIHAPPELVWSIVRRFDKPQTYKHFIKSCSVEQNFEMRVGCTRDVIVISGLPANTSTERLDILDDERRVTGFSIIGGEFRLTNYKSVTTVHRFEKENRIWTVVLESYVVDMPEGNSEDDTRMFADTVVKLNLQKLATVAEAMARNSGDGSGSQVT
  Mutations in PYR1 that disrupt ABA-induced binding to PYR1 to HAB1: x

B8: H115G: PYR1 mutant (protein, UniProt O49686 1-191, looked up, variant H115G)
Abscisic acid receptor PYR1: MPSELTPEERSELKNSIAEFHTYQLDPGSCSSLHAQRIHAPPELVWSIVRRFDKPQTYKHFIKSCSVEQNFEMRVGCTRDVIVISGLPANTSTERLDILDDERRVTGFSIIGGEGRLTNYKSVTTVHRFEKENRIWTVVLESYVVDMPEGNSEDDTRMFADTVVKLNLQKLATVAEAMARNSGDGSGSQVT
  Mutations in PYR1 that disrupt ABA-induced binding to PYR1 to HAB1: x

B9: H115I: PYR1 mutant (protein, UniProt O49686 1-191, looked up, variant H115I)
Abscisic acid receptor PYR1: MPSELTPEERSELKNSIAEFHTYQLDPGSCSSLHAQRIHAPPELVWSIVRRFDKPQTYKHFIKSCSVEQNFEMRVGCTRDVIVISGLPANTSTERLDILDDERRVTGFSIIGGEIRLTNYKSVTTVHRFEKENRIWTVVLESYVVDMPEGNSEDDTRMFADTVVKLNLQKLATVAEAMARNSGDGSGSQVT
  Mutations in PYR1 that disrupt ABA-induced binding to PYR1 to HAB1: x
